Results on two molecules are retold here after US20090053745A1 (RUTGERS THE STATE UNIVERSITY OF NEW JERSEY, published 2009).

The target in assay [1] is PSD-95 (endogenous, rat brain extract) (rat, UniProt P31016 1-724, limits assumed). The assay is described as follows: co-immunoprecipitation from rat brain extract with anti-snapin. The method, then:
(§1) For co-immunoprecipitation studies, one rat brain was homogenized in 10 ml of TEE (25 mM Tris, 1 mM EGTA, 1 mM EDTA)+1 mM PMSF. Triton X-100 was added to a final concentration of 1% and proteins were extracted for 1 hour at 4° C. The extract was centrifuged at 12,000×g to remove insoluble material and the supernatant was incubated with either anti-cypin, anti-snapin, preimmune serum, rabbit IgG, anti-tubulin, or mouse IgG. Protein A beads were added and after a 1 hour incubation, the beads were washed with TEE+0.2% Triton X-100. Immunoprecipitated proteins were eluted with protein loading buffer and resolved by SDS-PAGE and transferred to PVDF membrane. Blots were probed with the indicated antibodies. Experiments were performed in duplicate or triplicate.

Assay [2] has as its target SNAP-25 (endogenous, rat brain extract) (rat, UniProt P60881 1-206). Described as above. The method, then: as §1
In assay [3] the target is T1, cypin (endogenous, rat brain extract) (rat, UniProt Q9WTT6 1-454).
T1 sequence (looked up): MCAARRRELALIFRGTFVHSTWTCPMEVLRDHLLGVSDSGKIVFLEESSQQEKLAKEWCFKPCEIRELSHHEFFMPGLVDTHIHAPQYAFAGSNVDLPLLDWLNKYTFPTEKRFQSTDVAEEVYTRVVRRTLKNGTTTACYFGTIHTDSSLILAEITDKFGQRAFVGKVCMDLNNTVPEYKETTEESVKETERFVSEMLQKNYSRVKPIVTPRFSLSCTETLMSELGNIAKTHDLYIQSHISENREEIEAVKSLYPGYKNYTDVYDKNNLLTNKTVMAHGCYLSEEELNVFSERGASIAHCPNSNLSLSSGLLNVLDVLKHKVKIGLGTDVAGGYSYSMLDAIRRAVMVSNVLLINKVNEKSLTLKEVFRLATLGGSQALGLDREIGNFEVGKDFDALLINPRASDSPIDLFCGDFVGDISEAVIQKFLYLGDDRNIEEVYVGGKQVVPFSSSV
The assay is described as follows: GST affinity chromatography with rat brain extract. The method, then: COS-7 cells were transfected with either pEGFP-C1-snapin, pDsRed-N1-snapin, pEGFP-C1-cypin or pDsRed-N1-cypin using Lipofectamine 2000 (Invitrogen, Carlsbad, Calif.) as described by manufacturer. Cells were washed with cold PBSE (phosphate buffered saline and 1 mM EDTA) and scraped into 5 mL of TEEN (25 mM Tris-HCl, pH 7.4, 1 mM EDTA, 1 mM EGTA, 100 mM NaCl). Cells were homogenized using a Potter-Elvehjem tissue grinder (20 strokes). Phenylmethylsulfonyl fluoride and DTT were added to lysates to final concentrations of 1 mM and cells were further lysed by passing the extract through a 25 gauge needle 5 times. Lysates were centrifuged at 12,000×g for 10 minutes at 4° C. Triton X-100 was added to the supernatant to a final concentration of 1% and incubated at 4° C. for 30 minutes. Lysates were centrifuged at 12,000×g for 10 minutes at 4° C. COS-7 cell lysates were incubated with glutathione-sepharose beads bound to 25 μg of the appropriate GST-fusion proteins for 1 hour at 4° C. Beads were washed three times with TEEN. Bound proteins were eluted with 0.5% SDS and 100 mM NaCl. Proteins were resolved on a 10% SDS polyacrylamide gel and transferred to PVDF membrane. Blots were probed with the indicated antibodies. For experiments using rat brain extracts, the extracts were prepared exactly as described above except that they were not passed through a 25 gauge needle. […]

In assay [4] the target is T2, GST-cypin (UniProt Q9WTT6 1-454).
T2 construct: Expressed in E. coli, purified on glutathione sepharose, eluted with glutathione and dialysed; No removal of GST is reported; also called purified cypin; not shown: glutathione S-transferase (GST) fusion partner
T2 sequence (looked up): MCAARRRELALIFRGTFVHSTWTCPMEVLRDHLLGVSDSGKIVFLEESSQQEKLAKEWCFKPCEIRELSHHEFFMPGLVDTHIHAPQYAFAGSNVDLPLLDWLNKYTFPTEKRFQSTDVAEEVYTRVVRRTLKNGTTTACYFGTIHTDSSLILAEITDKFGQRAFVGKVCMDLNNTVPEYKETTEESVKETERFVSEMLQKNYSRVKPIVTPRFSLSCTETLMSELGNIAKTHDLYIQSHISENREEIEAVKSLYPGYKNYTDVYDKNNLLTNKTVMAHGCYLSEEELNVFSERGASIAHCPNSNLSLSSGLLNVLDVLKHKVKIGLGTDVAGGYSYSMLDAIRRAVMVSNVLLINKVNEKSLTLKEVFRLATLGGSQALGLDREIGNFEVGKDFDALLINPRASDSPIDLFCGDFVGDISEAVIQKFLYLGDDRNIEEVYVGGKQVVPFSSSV
Briefly: competition co-immunoprecipitation of purified cypin (2 µM) and tubulin heterodimers (7 µM); ligand to be displaced: tubulin heterodimers; strip labelled α-Tubulin on the sheet. The method, then:
GST, GST-cypin, and GST-snapin were expressed in E. coli and purified using glutathione sepharose as previously described (Firestein et al., 1999). Purified proteins were eluted from the beads using glutathione and dialyzed against phosphate buffered saline. Purified cypin (2 μM) and the indicated concentrations of purified snapin were mixed with tubulin heterodimers (7 μM) in PEM buffer (80 mM PIPES, pH 6.9, 2 mM MgCl₂, 0.5 mM EGTA) containing 5% glycerol for 4-6 hours at 4° C. The mixtures were subjected to immunoprecipitation using a monoclonal antibody raised against tubulin. Binding of purified proteins was assayed by SDS-PAGE followed by Western blotting using a rabbit polyclonal antibody raised against cypin (Akum et al., 2004).
Since snapin binds to cypin's CRMP homology domain, which is responsible for binding tubulin heterodimers (Akum et al., 2004), it is possible that snapin could compete tubulin binding to cypin. To address this question, co-immunoprecipitation of purified cypin and tubulin heterodimers in the presence of full-length snapin or the N-terminal half of snapin (amino acids 1-68) was performed. No association of snapin with tubulin heterodimers by co-immunoprecipitation or affinity chromatography was found in the previous experiments (data not shown). […]

Sequence of PSD-95 (endogenous, rat brain extract) (P31016 whole entry): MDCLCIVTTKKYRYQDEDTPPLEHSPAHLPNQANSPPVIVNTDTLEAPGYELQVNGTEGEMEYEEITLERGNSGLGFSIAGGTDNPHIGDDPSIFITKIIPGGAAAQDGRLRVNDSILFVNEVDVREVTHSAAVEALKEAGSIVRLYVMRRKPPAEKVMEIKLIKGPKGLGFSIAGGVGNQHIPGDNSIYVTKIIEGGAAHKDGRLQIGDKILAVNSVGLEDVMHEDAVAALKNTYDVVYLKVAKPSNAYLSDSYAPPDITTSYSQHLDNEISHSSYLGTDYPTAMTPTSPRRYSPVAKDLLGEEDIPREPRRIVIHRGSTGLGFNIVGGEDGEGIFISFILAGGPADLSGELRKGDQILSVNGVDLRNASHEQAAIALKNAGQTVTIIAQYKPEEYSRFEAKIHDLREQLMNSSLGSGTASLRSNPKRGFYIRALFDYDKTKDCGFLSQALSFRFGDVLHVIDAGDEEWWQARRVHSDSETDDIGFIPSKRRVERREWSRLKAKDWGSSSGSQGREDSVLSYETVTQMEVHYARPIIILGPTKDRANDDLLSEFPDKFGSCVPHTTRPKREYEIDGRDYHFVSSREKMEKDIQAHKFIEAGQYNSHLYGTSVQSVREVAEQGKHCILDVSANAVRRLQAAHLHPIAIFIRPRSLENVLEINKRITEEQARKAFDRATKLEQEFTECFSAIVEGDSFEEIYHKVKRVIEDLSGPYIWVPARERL
Sequence of SNAP-25 (endogenous, rat brain extract) (P60881 whole entry): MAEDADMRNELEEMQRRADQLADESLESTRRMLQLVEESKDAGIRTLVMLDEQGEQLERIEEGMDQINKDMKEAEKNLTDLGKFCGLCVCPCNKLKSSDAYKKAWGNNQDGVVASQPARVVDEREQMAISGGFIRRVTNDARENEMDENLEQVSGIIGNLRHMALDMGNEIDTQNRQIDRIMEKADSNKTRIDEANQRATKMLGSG

B1: snapin (endogenous, rat brain extract) (other, UniProt P60192 2-136, looked up)
chain: AAAGSAAVSGAGTPVAGPTGRDLFAEGLLEFLRPAVQQLDSHVHAVRESQVELREQIDNLATELCRINEDQKVALDLDPYVKKLLNARRRVVLVNNILQNAQERLRRLNHSVAKETARRRAMLDSGVYPPGSPSK
notes: The smaller band may be a degradation product or a modified snapin
For the molecule B1, the binding result in assay [1] and in assay [2] was “no binding” throughout.

B2: GST-snapin (first 68 amino acids) (other)
chain: MAGAGSAAVSGAGTPVAGPTGRDLFAEGLLEFLRPAVQQLDSHVHAVRESQVELREQIDNLATELCRI
notes: also called snapin(1-68); N-terminal half of snapin; not shown: glutathione S-transferase (GST) fusion partner
Turning to B2, the binding result in assay [3] is “no binding”; in assay [4] it was “no binding (tested: 4 µM)”.
